From patent publication US20140120109A1 (Regeneron, published 2014)

T1: human TL1A, soluble, CHO-expressed, residues 72-251 of SEQ ID NO:244 with N-terminal His6-tag (human, UniProt O95150 72-251)
T1 sequence: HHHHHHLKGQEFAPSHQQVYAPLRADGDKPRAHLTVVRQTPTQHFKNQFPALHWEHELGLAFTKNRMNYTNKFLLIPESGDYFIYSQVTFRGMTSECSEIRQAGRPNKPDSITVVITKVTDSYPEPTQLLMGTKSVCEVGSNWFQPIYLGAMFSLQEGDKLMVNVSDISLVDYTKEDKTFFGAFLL

T2: human TL1A, soluble, E. coli-expressed, residues 72-251 of SEQ ID NO:244 (human, UniProt O95150 72-251)
T2 sequence: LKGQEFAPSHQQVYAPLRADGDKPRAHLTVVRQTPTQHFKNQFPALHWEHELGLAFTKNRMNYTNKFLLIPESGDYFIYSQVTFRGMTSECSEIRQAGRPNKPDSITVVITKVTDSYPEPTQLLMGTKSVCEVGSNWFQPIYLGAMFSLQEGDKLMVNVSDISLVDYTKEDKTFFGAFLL

T3: cynomolgus monkey TL1A, soluble, CHO-expressed, residues 72-251 of SEQ ID NO:248 with N-terminal His6-tag (cynomolgus monkey (Macaca fascicularis), UniProt O95150 72-251 (human entry))
T3 chain: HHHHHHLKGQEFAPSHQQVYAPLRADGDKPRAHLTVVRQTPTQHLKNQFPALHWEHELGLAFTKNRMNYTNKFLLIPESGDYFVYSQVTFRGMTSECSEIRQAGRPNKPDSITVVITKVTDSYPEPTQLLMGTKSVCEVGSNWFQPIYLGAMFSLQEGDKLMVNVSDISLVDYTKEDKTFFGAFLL

T4: cynomolgus monkey TL1A, soluble, E. coli-expressed, residues 72-251 of SEQ ID NO:248 (cynomolgus monkey (Macaca fascicularis), UniProt O95150 72-251 (human entry))
T4 chain: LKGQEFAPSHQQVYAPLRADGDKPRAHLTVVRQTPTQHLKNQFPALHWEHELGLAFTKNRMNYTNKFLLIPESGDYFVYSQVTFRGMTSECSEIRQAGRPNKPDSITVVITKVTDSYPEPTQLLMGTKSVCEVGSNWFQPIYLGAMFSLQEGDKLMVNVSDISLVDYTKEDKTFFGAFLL

T5: full length human TL1A expressed on HEK293 cells (human, UniProt O95150 1-251)
T5 sequence: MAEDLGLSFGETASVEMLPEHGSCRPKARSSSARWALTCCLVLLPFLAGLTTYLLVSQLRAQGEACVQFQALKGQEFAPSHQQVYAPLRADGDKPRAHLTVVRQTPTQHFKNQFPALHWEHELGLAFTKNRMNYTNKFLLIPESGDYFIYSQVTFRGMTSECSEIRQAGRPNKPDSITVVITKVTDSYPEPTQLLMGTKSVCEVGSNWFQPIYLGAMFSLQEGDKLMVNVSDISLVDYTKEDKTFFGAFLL

T6: full-length cynomolgus monkey TL1A expressed on HEK293 cells (cynomolgus monkey (Macaca fascicularis), UniProt O95150 1-251 (human entry))
T6 chain: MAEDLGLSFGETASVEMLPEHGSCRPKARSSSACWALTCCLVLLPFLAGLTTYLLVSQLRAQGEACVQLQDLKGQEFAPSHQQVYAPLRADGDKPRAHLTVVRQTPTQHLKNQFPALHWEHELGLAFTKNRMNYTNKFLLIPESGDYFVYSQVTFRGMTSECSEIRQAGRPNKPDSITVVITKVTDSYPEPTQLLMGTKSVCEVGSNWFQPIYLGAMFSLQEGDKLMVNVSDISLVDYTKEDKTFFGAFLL

B1: H4H1681N (antibody, human IgG4 S228P, V domains shown)
VH: EVQLLESGGGLVQPGKSLRLSCAVSGFTFSTYGMNWVRQAPGKGLEWVSSISGTGRTTYHADSVQGRFTVSRDNSKNILYLQMNSLRADDTAVYFCTKERGDYYYGVFDYWGQGTLVTVSS
VL: DIQMTQSPSTLSASVGDRVTITCRASQTISSWLAWYQQTPEKAPKLLIYAASNLQSGVPSRFSGSGSGTEFTLTISSLQPDDFATYYCQQYHRSWTFGQGTKVEIT
B2: H4H1752P (antibody, human IgG4 S228P, V domains shown)
VH: EVQLVESGGGLVQPGGSLRLSCSASGFTFSKYVMTWVRQAPGKGLEWVSAIGPTGRTTEYADSVQGRFTISRDNSMNTVFLHLNSLTAEDTAEYYCAKMFDWNYDVYFDSWGQGTLVTVSS
VL: DIQMTQSPSILSASVGDRVTITCRTSQSISNWLAWYQQKPGKAPNLLIYKASSLESGVPSRFSGSGSGTEFTLTISSLQPDDFATYYCQQYYRYWTFGQGTKVEIK
B3: H4H1818N (antibody, human IgG4 S228P, V domains shown)
VH: RLQLVESGGGLVKPGGSLKLSCAASGFTISDYYMSWIRQAPGKGLEWVSYIGGSGSTIYYADSVKGRFTISRDNAKNSLYLQMNSLRAEDTAVYYCAREDADSYYYYGMDVWGQGTTVTVSS
VL: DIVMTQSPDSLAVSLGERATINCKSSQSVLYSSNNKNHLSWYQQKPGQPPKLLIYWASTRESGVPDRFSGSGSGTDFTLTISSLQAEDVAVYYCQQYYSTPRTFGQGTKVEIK
notes: human IgG4(S108P) form of H2M1818N
B4: H4H1719P (antibody, human IgG4 S228P, V domains shown)
VH: EVQLVESGGGLVQPGRSLRLSCVASGFTFQDYAMHWVRQAPGKGLEWVSGINWISDDMGYADSVMGRFTISRDNAKNSLYLQMDSLRAEDTALYYCAKDKGLRFLDYVMDVWGQGTTVTVSA
VL: DIVMTQSPLSLPVTPGEPASISCRSTQSLLHRNGHNYLHWYLHKPGQSPQLLIHLGSNRASGVPDRFSGSGSGTDFTLKISRVEAEDVGVYYCMQALQTPYTFGQGTKLEIK
B5: H4H1750P (antibody, human IgG4 S228P, V domains shown)
VH: QVQLVESGGGVVQPGRSLRLSCVASGFTFSNYGMHWVRQAPGKGLEWVAVISYDGNNDLYSDSVKGRFTISRDNAKNALSLQMTSLRAEDTAVYYCARDSTMTPYYYHGIDVWGQGTTVTVSA
VL: DIQMTQSPSSLSASVGDRVTITCRASQDIRNDLGWYQQKPGKAPKRLIYAASSLQSGVPSRFSGSGSGTDFTLTISSLQPEDFATYYCLQHNSYPPTFGQGTKVEIK

How the values were obtained:
[1] = biological target: T1, human TL1A, soluble, CHO-expressed, …; assay: cell-based or functional assay
[2] = biological target: T2, human TL1A, soluble, E. coli-expressed, …; assay: cell-based or functional assay
[3] = biological target: T3, cynomolgus monkey TL1A, soluble, …; assay: cell-based or functional assay
[4] = biological target: T4, cynomolgus monkey TL1A, soluble, E. …; assay: cell-based or functional assay
[5] = biological target: T5, full length human TL1A expressed on …; assay: cell-based or functional assay
[6] = biological target: T6, full-length cynomolgus monkey TL1A …; assay: cell-based or functional assay
[7] = biological target: T3, cynomolgus monkey TL1A, soluble, …; assay: ELISA, blocks MfTL1A (500 pM) binding hDR3-Fc
Method: The ability of antibodies to block human TL1A binding to its cognate receptors, the DR3 and DcR3 receptors, was measured using a competition sandwich ELISA. In addition, blocking of a human TL1A variant FHM (human TL1A Q167R) and the cynomolgus monkey (Macaca fascicularis) TL1A (MfTL1A) protein binding to the human DR3 or DcR3 receptors was measured in the same manner. Constant amounts of biotinylated human TL1A or FHM (both expressed with a 6-His tag in CHO cells) or biotinylated MfTL1A (expressed in CHO cells) were separately titrated with varying amounts of antibodies. The antibody-protein complexes were incubated in solution (1 hr, 25° C.) and then transferred to microtiter plates coated with human DR3 (hDR3) or human DcR3 (hDcR3) expressed as human IgG1 Fc fusion proteins. After one hour at 25° C. the wells were washed, and bound human or monkey TL1A was detected with streptavidin conjugated with horseradish peroxidase (HRP). Wells were developed with a TMB solution to produce a colorimetric reaction and quenched with aqueous sulfuric acid before reading absorbance at 450 nm on a Perkin-Elmer Victor X5 plate reader. A sigmoidal dose-response curve was fit to the data using the Prism™ data analysis package. […] Both fully human anti-hTL1A mAbs and comparator antibodies, i.e., control mAb1 (an anti-hTL1A antibody with heavy and light chain variable domains having the amino acid sequences corresponding to SEQ ID NOS:21 and 27, respectively, of US 2009/0280116) and control mAb3 (an anti-hTL1A antibody with heavy and light chain variable domains having the amino acid sequences corresponding to SEQ ID NOS:57 and 48, respectively, of US 2009/0280116), were included in the study. NB: No binding under the conditions tested; NT: Not tested. Concentrations of biotinylated soluble ligands: (1) 150 pM; (2) 500 pM; (3) 10 pM; and (4) 50 pM.

| Binder | IC50, NFkB-luciferase reporter [1] [nM] | IC50, NFkB-luciferase reporter [2] [nM] | IC50, NFkB-luciferase reporter [3] [nM] | IC50, NFkB-luciferase reporter [4] [nM] | IC50, reporter + 10,000 TL1A cells [5] [nM] | IC50, reporter + 10,000 TL1A cells [6] [nM] | IC50 [7] [nM] |
| --- | --- | --- | --- | --- | --- | --- | --- |
| B1 | 0.17 | 0.02 | 0.03 | 0.02 | 0.66 | 3.07 | 0.141 |
| B2 | 0.36 | 0.21 | 0.12 | 0.05 | 1.99 | 11.7 | 0.11 |
| B3 | 0.37 | 0.29 | 0.13 | 0.06 | 1.54 | 4.29 | 0.123 |
| B4 | 0.06 | 0.02 | 0.01 | 0.02 | 0.82 | 3 | 0.046 |
| B5 | 0.9 | 2.17 | 155 | 32.5 | 12.8 | 107 |  |
